Test results taken from the supplement of paper PMC9116672.
± gives the standard deviation of the averaged measurements or the uncertainty stated by the source.

Key:
[1] = duplex formation enthalpy ΔH (Van't Hoff fit of HRM Tm); higher = less exothermic duplex formation; settings: temperature for dG: 50 °C, NaCl: 500 mM (unadjusted)
Description: (§1)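 Duplex of the listed DNA strand with its complement, in 1x NNE buffer (500 mM NaCl, pH 7.0) with 1x EvaGreen. ΔH and ΔS come from a Van't Hoff linear fit of 1/Tm against ln(CT/4) over 1-20 uM, using HRM Tm values.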

[2] = duplex formation free energy ΔG50 (Van't Hoff fit of HRM Tm); higher = less stable duplex; settings: temperature for dG: 50 °C, NaCl: 500 mM (unadjusted)
Description: as §1

[3] = duplex formation entropy ΔS (Van't Hoff fit of HRM Tm); higher = smaller entropy loss on duplex formation; settings: temperature for dG: 50 °C, NaCl: 500 mM (unadjusted)
Description: as §1

[4] = duplex melting temperature (HRM, EvaGreen); higher = more stable duplex
Description: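 Listed DNA strand annealed 1:1 with its complementary strand (95 °C 5 min, 0.1 °C/s to 20 °C). Melted in 1x NNE buffer (500 mM NaCl, 10 mM Na2HPO4, 1 mM EDTA, pH 7.0) with 1x EvaGreen on a LightCycler96 (37 to 97 °C, 0.1 °C/s). Tm is the peak of -dF/dT at the stated total duplex concentration; 4 replicates are averaged. PS oligos are non-stereospecific (Rp/Sp mixtures).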

[5] = backbone: PO-PO (both strands phosphodiester DNA)
[6] = backbone: PS-PO (listed strand fully phosphorothioate, complement phosphodiester)
[7] = backbone: PS-PS (both strands fully phosphorothioate)
[8] = duplex concentration 1 µM, backbone: PO-PO (both strands phosphodiester DNA)
[9] = duplex concentration 1 µM, backbone: PS-PO (listed strand fully phosphorothioate, complement phosphodiester)
[10] = duplex concentration 1 µM, backbone: PS-PS (both strands fully phosphorothioate)
[11] = duplex concentration 2.5 µM, backbone: PO-PO (both strands phosphodiester DNA)
[12] = duplex concentration 2.5 µM, backbone: PS-PO (listed strand fully phosphorothioate, complement phosphodiester)
[13] = duplex concentration 2.5 µM, backbone: PS-PS (both strands fully phosphorothioate)
[14] = duplex concentration 5 µM, backbone: PO-PO (both strands phosphodiester DNA)
[15] = duplex concentration 5 µM, backbone: PS-PO (listed strand fully phosphorothioate, complement phosphodiester)
[16] = duplex concentration 5 µM, backbone: PS-PS (both strands fully phosphorothioate)
[17] = duplex concentration 7.5 µM, backbone: PO-PO (both strands phosphodiester DNA)
[18] = duplex concentration 7.5 µM, backbone: PS-PO (listed strand fully phosphorothioate, complement phosphodiester)
[19] = duplex concentration 7.5 µM, backbone: PS-PS (both strands fully phosphorothioate)
[20] = duplex concentration 10 µM, backbone: PO-PO (both strands phosphodiester DNA)
[21] = duplex concentration 10 µM, backbone: PS-PO (listed strand fully phosphorothioate, complement phosphodiester)
[22] = duplex concentration 10 µM, backbone: PS-PS (both strands fully phosphorothioate)
[23] = duplex concentration 15 µM, backbone: PO-PO (both strands phosphodiester DNA)
[24] = duplex concentration 15 µM, backbone: PS-PO (listed strand fully phosphorothioate, complement phosphodiester)
[25] = duplex concentration 15 µM, backbone: PS-PS (both strands fully phosphorothioate)
[26] = duplex concentration 20 µM, backbone: PO-PO (both strands phosphodiester DNA)
[27] = duplex concentration 20 µM, backbone: PS-PO (listed strand fully phosphorothioate, complement phosphodiester)
[28] = duplex concentration 20 µM, backbone: PS-PS (both strands fully phosphorothioate)

Sequence | duplex formation enthalpy ΔH [1, 5] [kcal/mol] | duplex formation enthalpy ΔH [1, 6] [kcal/mol] | duplex formation enthalpy ΔH [1, 7] [kcal/mol] | duplex formation free energy ΔG50 [2, 5] [kcal/mol] | duplex formation free energy ΔG50 [2, 6] [kcal/mol] | duplex formation free energy ΔG50 [2, 7] [kcal/mol] | duplex formation entropy ΔS [3, 5] [cal/mol/K] | duplex formation entropy ΔS [3, 6] [cal/mol/K] | duplex formation entropy ΔS [3, 7] [cal/mol/K] | duplex melting temperature [4, 8] [°C] | duplex melting temperature [4, 9] [°C] | duplex melting temperature [4, 10] [°C] | duplex melting temperature [4, 11] [°C] | duplex melting temperature [4, 12] [°C] | duplex melting temperature [4, 13] [°C] | duplex melting temperature [4, 14] [°C] | duplex melting temperature [4, 15] [°C] | duplex melting temperature [4, 16] [°C] | duplex melting temperature [4, 17] [°C] | duplex melting temperature [4, 18] [°C] | duplex melting temperature [4, 19] [°C] | duplex melting temperature [4, 20] [°C] | duplex melting temperature [4, 21] [°C] | duplex melting temperature [4, 22] [°C] | duplex melting temperature [4, 23] [°C] | duplex melting temperature [4, 24] [°C] | duplex melting temperature [4, 25] [°C] | duplex melting temperature [4, 26] [°C] | duplex melting temperature [4, 27] [°C] | duplex melting temperature [4, 28] [°C]
AACGAATGTCAGCAATT | -74.4 ± 2.8 | -74.7 ± 1.1 | -68.5 ± 1.9 | -12.5 ± 0.15 | -11.05 ± 0.039 | -9.166 ± 0.023 | -192 ± 8.3 | -197 ± 3.4 | -184 ± 5.7 | 62.43 ± 0.59 | 55.7 ± 0.6 | 47.1 ± 0.49 | 64.93 ± 0.41 | 58.37 ± 0.15 | 49.91 ± 0.19 | 66.97 ± 0.37 | 60.36 ± 0.23 | 52.27 ± 0.13 | 68.1 ± 0.45 | 61.59 ± 0.21 | 53.4 ± 0.093 | 69.1 ± 0.15 | 62.44 ± 0.15 | 54.261 ± 0.011 | 70.52 ± 0.15 | 63.69 ± 0.16 | 55.38 ± 0.048 | 71.52 ± 0.29 | 64.46 ± 0.11 | 56.34 ± 0.12
GATGCCGCAGCGACCTG |  | -75.7 ± 2.1 | -77.6 ± 1.3 |  | -13.6 ± 0.14 | -12.42 ± 0.065 |  | -192 ± 5.9 | -202 ± 3.8 |  | 67.1 | 61.35 ± 0.33 | 76.6 ± 1.4 | 69.756 ± 0.045 | 64.23 ± 0.086 | 78.68 ± 0.64 | 72.16 ± 0.23 | 66.19 ± 0.1 | 80.46 ± 0.37 | 73.33 ± 0.28 | 67.4 ± 0.078 | 81.03 ± 0.31 | 74.43 ± 0.15 | 68.25 ± 0.097 | 82.09 ± 0.41 | 75.63 ± 0.13 | 69.34 ± 0.12 | 82.88 ± 0.26 | 76.48 ± 0.17 | 70.24 ± 0.13
CGGGATTTCTGGCATCATTGTCCT | -126 ± 7 | -141 ± 6.2 | -108 ± 3.9 | -19 ± 0.58 | -17.1 ± 0.38 | -13 ± 0.16 | -332 ± 20 | -384 ± 18 | -294 ± 11 | 76 ± 0.48 | 67.9 ± 0.64 | 59.9 ± 0.76 | 77.25 ± 0.45 | 69.22 ± 0.5 | 61.87 ± 0.59 | 78.194 ± 0.017 | 70.21 ± 0.48 | 63.36 ± 0.43 | 79.16 ± 0.14 | 70.82 ± 0.46 | 64.38 ± 0.25 | 79.99 ± 0.12 | 71.58 ± 0.27 | 65.03 ± 0.12 | 80.96 ± 0.077 | 72.42 ± 0.15 | 65.67 ± 0.24 | 81.6 ± 0.082 | 72.86 ± 0.12 | 66.1 ± 0.11
CCCAGGCCTCGGATTTA | -80.8 ± 2.1 | -74.2 ± 1.2 | -77.5 ± 2.1 | -14.1 ± 0.15 | -12.37 ± 0.061 | -11.41 ± 0.078 | -206 ± 6.1 | -191 ± 3.5 | -205 ± 6.3 |  | 61.72 ± 0.53 | 56.81 ± 0.12 | 71.02 ± 0.086 | 64.52 ± 0.19 | 59.77 ± 0.087 | 73.09 ± 0.13 | 66.7 ± 0.3 | 61.69 ± 0.093 | 74.25 ± 0.19 | 67.99 ± 0.22 | 62.78 ± 0.14 | 75.215 ± 0.05 | 68.759 ± 0.049 | 63.54 ± 0.15 | 76.343 ± 0.055 | 70.047 ± 0.069 | 64.73 ± 0.092 | 77.12 ± 0.096 | 71.04 ± 0.25 | 65.39 ± 0.35
